Measured values reported in the MegaScale stability set (Tsuboyama et al. 2023).

B1: EEHEE_rd4_0363 (parent)
chain: VTVDIKGMEYHFDNPEEAKKFAERMAKELGGELKVENGTLKVE

Variants of: B1
Test: folding stability dG (cDNA display proteolysis); higher = more stable
Conditions: PBS, room temperature

Compared with VTVDIKGMEYHFDNPEEAKKFAERMAKELAGELKVENGTLKVE [G30A], VTVDIKGMEYHFDNPEEAKKFAERMAKELIGELKVENGTLKVE [G30I] is lower in “folding stability dG” value: 1.43 kcal/mol for the first, 1 kcal/mol for the second.

Going from VTVDIKGMEYHFDNPEEAKKFAERMAKELMGELKVENGTLKVE [G30M] to VTVDIKGMEYHFDNPEEAKKFAERMAKELPGELKVENGTLKVE [G30P], the “folding stability dG” value falls from 1.55 kcal/mol to 0.76 kcal/mol.

Going from VTVDIKGMEYHFDNPEEAKKFAERMAKELCGELKVENGTLKVE [G30C] to VTVDIKGMEYHFDNPEEAKKFAERMAKELDGELKVENGTLKVE [G30D], the “folding stability dG” value falls from 2.23 kcal/mol to 1.52 kcal/mol.

Going from VTVDIKGMEYHFDNPEEAKKFAERMAKELKGELKVENGTLKVE [G30K] to VTVDIKGMEYHFDNPEEAKKFAERMAKELNGELKVENGTLKVE [G30N], the “folding stability dG” value rises from 1.66 kcal/mol to 1.93 kcal/mol.

Compared with VTVDIKGMEYHFDNPEEAKKFAERMAKELFGELKVENGTLKVE [G30F], VTVDIKGMEYHFDNPEEAKKFAERMAKELLGELKVENGTLKVE [G30L] is lower in “folding stability dG” value: 1.43 kcal/mol for the first, 1.34 kcal/mol for the second.

Compared with VTVDIKGMEYHFDNPEEAKKFAERMAKELHGELKVENGTLKVE [G30H], VTVDIKGMEYHFDNPEEAKKFAERMAKELEGELKVENGTLKVE [G30E] is lower in “folding stability dG” value: 1.74 kcal/mol for the first, 1.41 kcal/mol for the second.

Compared with VTVDIKGMEYHFDNPEEAKKFAERMAKEVGGELKVENGTLKVE [L29V], VTVDIKGMEYHFDNPEEAKKFAERMAKEYGGELKVENGTLKVE [L29Y] is higher in “folding stability dG” value: 1.14 kcal/mol for the first, 1.47 kcal/mol for the second.

First: VTVDIKGMEYHFDNPEEAKKFAERMAKEMGGELKVENGTLKVE [L29M]
Second: VTVDIKGMEYHFDNPEEAKKFAERMAKEEGGELKVENGTLKVE [L29E]
The “folding stability dG” value of the first is higher: 1.69 kcal/mol for the first, 0.835 kcal/mol for the second.

Compared with VTVDIKGMEYHFDNPEEAKKFAERMAKEHGGELKVENGTLKVE [L29H], VTVDIKGMEYHFDNPEEAKKFAERMAKESGGELKVENGTLKVE [L29S] is lower in “folding stability dG” value: 1.23 kcal/mol for the first, 1.12 kcal/mol for the second.

Going from VTVDIKGMEYHFDNPEEAKKFAERMAKETGGELKVENGTLKVE [L29T] to VTVDIKGMEYHFDNPEEAKKFAERMAKEKGGELKVENGTLKVE [L29K], the “folding stability dG” value falls from 1.37 kcal/mol to 0.78 kcal/mol.

Compared with VTVDIKGMEYHFDNPEEAKKFAERMAKEWGGELKVENGTLKVE [L29W], VTVDIKGMEYHFDNPEEAKKFAERMAKERGGELKVENGTLKVE [L29R] is lower in “folding stability dG” value: 1.34 kcal/mol for the first, 0.668 kcal/mol for the second.

Compared with VTVDIKGMEYHFDNPEEAKKFAERMAKEIGGELKVENGTLKVE [L29I], VTVDIKGMEYHFDNPEEAKKFAERMAKEFGGELKVENGTLKVE [L29F] is lower in “folding stability dG” value: 1.57 kcal/mol for the first, 1.55 kcal/mol for the second.

Compared with VTVDIKGMEYHFDNPEEAKKFAERMAKENGGELKVENGTLKVE [L29N], VTVDIKGMEYHFDNPEEAKKFAERMAKEQGGELKVENGTLKVE [L29Q] is higher in “folding stability dG” value: 1.05 kcal/mol for the first, 1.06 kcal/mol for the second.

First: VTVDIKGMEYHFDNPEEAKKFAERMAKEPGGELKVENGTLKVE [L29P]
Second: VTVDIKGMEYHFDNPEEAKKFAERMAKEAGGELKVENGTLKVE [L29A]
The “folding stability dG” value of the first is lower: 0.59 kcal/mol for the first, 0.915 kcal/mol for the second.

Compared with VTVDIKGMEYHFDNPEEAKKFAERMAKEDGGELKVENGTLKVE [L29D], VTVDIKGMEYHFDNPEEAKKFAERMAKEGGGELKVENGTLKVE [L29G] is higher in “folding stability dG” value: 0.74 kcal/mol for the first, 0.895 kcal/mol for the second.

Compared with VTVDIKGMEYHFDNPEEAKKFAEQMAKELGGELKVENGTLKVE [R24Q], VTVDIKGMEYHFDNPEEAKKFAEVMAKELGGELKVENGTLKVE [R24V] is lower in “folding stability dG” value: 2.04 kcal/mol for the first, 1.35 kcal/mol for the second.

First: VTVDIKGMEYHFDNPEEAKKFAESMAKELGGELKVENGTLKVE [R24S]
Second: VTVDIKGMEYHFDNPEEAKKFAEIMAKELGGELKVENGTLKVE [R24I]
The “folding stability dG” value of the first is higher: 1.72 kcal/mol for the first, 1.5 kcal/mol for the second.

Compared with VTVDIKGMEYHFDNPEEAKKFAEKMAKELGGELKVENGTLKVE [R24K], VTVDIKGMEYHFDNPEEAKKFAEMMAKELGGELKVENGTLKVE [R24M] is higher in “folding stability dG” value: 2.01 kcal/mol for the first, 2.11 kcal/mol for the second.

First: VTVDIKGMEYHFDNPEEAKKFAELMAKELGGELKVENGTLKVE [R24L]
Second: VTVDIKGMEYHFDNPEEAKKFAEYMAKELGGELKVENGTLKVE [R24Y]
The “folding stability dG” value of the first is lower: 1.99 kcal/mol for the first, 2.34 kcal/mol for the second.

Compared with VTVDIKGMEYHFDNPEEAKKFAENMAKELGGELKVENGTLKVE [R24N], VTVDIKGMEYHFDNPEEAKKFAEPMAKELGGELKVENGTLKVE [R24P] is lower in “folding stability dG” value: 1.55 kcal/mol for the first, -0.281 kcal/mol for the second.

First: VTVDIKGMEYHFDNPEEAKKFAETMAKELGGELKVENGTLKVE [R24T]
Second: VTVDIKGMEYHFDNPEEAKKFAEWMAKELGGELKVENGTLKVE [R24W]
The “folding stability dG” value of the first is lower: 1.75 kcal/mol for the first, 2.34 kcal/mol for the second.

First: VTVDIKGMEYHFDNPEEAKKFAERMAHELGGELKVENGTLKVE [K27H]
Second: VTVDIKGMEYHFDNPEEAKKFAERMAIELGGELKVENGTLKVE [K27I]
The “folding stability dG” value of the first is lower: 1.87 kcal/mol for the first, 2.14 kcal/mol for the second.

First: VTVDIKGMEYHFDNPEEAKKFAERMAMELGGELKVENGTLKVE [K27M]
Second: VTVDIKGMEYHFDNPEEAKKFAERMAWELGGELKVENGTLKVE [K27W]
The “folding stability dG” value of the first is lower: 2.19 kcal/mol for the first, 2.28 kcal/mol for the second.

Going from VTVDIKGMEYHFDNPEEAKKFAERMAVELGGELKVENGTLKVE [K27V] to VTVDIKGMEYHFDNPEEAKKFAERMAQELGGELKVENGTLKVE [K27Q], the “folding stability dG” value rises from 1.82 kcal/mol to 2.09 kcal/mol.

First: VTVDIKGMEYHFDNPEEAKKFAERMASELGGELKVENGTLKVE [K27S]
Second: VTVDIKGMEYHFDNPEEAKKFAERMAGELGGELKVENGTLKVE [K27G]
The “folding stability dG” value of the first is higher: 1.81 kcal/mol for the first, 1.35 kcal/mol for the second.

First: VTVDIKGMEYHFDNPEEAKKFAERMAPELGGELKVENGTLKVE [K27P]
Second: VTVDIKGMEYHFDNPEEAKKFAERMAYELGGELKVENGTLKVE [K27Y]
The “folding stability dG” value of the first is lower: 0.089 kcal/mol for the first, 2.27 kcal/mol for the second.

Compared with VTVDIKGMEYHFDNPEEAKKFAERMAEELGGELKVENGTLKVE [K27E], VTVDIKGMEYHFDNPEEAKKFAERMANELGGELKVENGTLKVE [K27N] is lower in “folding stability dG” value: 1.77 kcal/mol for the first, 1.75 kcal/mol for the second.

Compared with VTVDIKGMEYHFDNPEEAKKFAERMACELGGELKVENGTLKVE [K27C], VTVDIKGMEYHFDNPEEAKKFAERMAFELGGELKVENGTLKVE [K27F] is lower in “folding stability dG” value: 2.48 kcal/mol for the first, 2.35 kcal/mol for the second.

Compared with VTVDIKGMEYHFDNPEEAKKFAERMADELGGELKVENGTLKVE [K27D], VTVDIKGMEYHFDNPEEAKKFAERMALELGGELKVENGTLKVE [K27L] is higher in “folding stability dG” value: 1.56 kcal/mol for the first, 2.35 kcal/mol for the second.

With VTVDIKGMEYHFDNPEEAKKFAERMATELGGELKVENGTLKVE [K27T] the “folding stability dG” value was 1.7 kcal/mol.
